From article PMC7961048 (2021)
Like-named read-outs stand apart in the source and are kept apart here. Non-standard residues stand in square brackets, D forms with d. No end group written: not given here. *: point of attachment. FITC = O=C1OC2(c3ccc(O)cc3Oc3cc(O)ccc32)c2ccc(NC(=S)*)cc21; Biotin = O=C1N[C@H]2[C@H](CS[C@H]2CCCCC(=O)*)N1; pT = C[C@@H](OP(=O)(O)O)[C@H](N)C(=O)O; ttds = NCCCOCCOCCOCCCNC(=O)CCC(=O)*; pS = N[C@@H](COP(=O)(O)O)C(=O)O

T1: full-length human 14-3-3σ fused to the C terminus of MBP (human, UniProt P31947 1-248)
T1 chain: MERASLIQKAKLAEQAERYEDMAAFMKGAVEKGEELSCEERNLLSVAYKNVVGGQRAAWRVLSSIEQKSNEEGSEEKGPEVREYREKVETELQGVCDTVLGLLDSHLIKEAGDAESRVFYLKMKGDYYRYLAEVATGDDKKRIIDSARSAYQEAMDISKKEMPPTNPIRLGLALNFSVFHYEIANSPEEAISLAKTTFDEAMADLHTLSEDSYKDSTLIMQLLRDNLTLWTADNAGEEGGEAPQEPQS

T2: full-length human 14-3-3η fused to the C terminus of MBP (human, UniProt Q04917 1-246)
T2 chain: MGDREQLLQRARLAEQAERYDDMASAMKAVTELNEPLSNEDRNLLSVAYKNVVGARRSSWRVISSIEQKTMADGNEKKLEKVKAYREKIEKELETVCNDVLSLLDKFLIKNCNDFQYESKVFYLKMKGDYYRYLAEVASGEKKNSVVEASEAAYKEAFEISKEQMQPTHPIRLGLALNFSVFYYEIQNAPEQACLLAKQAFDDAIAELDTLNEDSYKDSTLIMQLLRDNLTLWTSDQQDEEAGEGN

T3: full-length human 14-3-3β fused to the C terminus of MBP (human, UniProt P31946 1-246)
T3 chain: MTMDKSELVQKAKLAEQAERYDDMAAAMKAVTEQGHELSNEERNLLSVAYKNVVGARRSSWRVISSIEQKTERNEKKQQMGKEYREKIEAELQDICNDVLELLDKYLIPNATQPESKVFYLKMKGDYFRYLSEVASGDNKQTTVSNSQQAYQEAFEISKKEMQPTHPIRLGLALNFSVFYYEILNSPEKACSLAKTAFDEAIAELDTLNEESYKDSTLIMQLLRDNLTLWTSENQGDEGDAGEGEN

T4: full-length human 14-3-3τ fused to the C terminus of MBP (human, UniProt P27348 1-245)
T4 chain: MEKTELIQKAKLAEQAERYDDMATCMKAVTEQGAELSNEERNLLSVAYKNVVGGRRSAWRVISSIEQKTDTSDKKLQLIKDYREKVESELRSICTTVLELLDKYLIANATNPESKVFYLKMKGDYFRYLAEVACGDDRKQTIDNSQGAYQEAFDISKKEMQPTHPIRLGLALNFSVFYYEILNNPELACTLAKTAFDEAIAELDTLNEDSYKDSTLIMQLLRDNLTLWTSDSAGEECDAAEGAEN

T5: full-length human 14-3-3ε fused to the C terminus of MBP (human, UniProt P62258 1-255)
T5 chain: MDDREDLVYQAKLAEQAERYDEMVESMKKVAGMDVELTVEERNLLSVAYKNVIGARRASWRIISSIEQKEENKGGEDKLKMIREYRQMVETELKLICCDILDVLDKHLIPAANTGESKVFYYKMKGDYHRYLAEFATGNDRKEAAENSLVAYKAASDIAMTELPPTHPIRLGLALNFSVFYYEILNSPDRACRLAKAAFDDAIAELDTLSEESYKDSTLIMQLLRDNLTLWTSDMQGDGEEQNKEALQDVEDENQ

T6: unfused 14-3-3ε devoid of the flexible C-terminal tail (human)
T6 chain: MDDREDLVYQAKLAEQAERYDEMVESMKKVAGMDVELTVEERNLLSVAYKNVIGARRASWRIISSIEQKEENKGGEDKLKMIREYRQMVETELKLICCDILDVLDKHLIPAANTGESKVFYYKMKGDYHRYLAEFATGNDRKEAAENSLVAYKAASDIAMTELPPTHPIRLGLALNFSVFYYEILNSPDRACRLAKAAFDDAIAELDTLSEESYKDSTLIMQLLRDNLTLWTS

T7: unfused 14-3-3τ devoid of the flexible C-terminal tail (human)
T7 chain: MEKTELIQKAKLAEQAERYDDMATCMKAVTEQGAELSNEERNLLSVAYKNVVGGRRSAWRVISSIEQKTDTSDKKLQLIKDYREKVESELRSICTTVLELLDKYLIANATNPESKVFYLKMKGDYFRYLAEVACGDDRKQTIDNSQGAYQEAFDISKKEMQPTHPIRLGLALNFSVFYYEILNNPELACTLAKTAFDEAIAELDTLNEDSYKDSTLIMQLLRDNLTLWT

T8: unfused 14-3-3β devoid of the flexible C-terminal tail (human)
T8 chain: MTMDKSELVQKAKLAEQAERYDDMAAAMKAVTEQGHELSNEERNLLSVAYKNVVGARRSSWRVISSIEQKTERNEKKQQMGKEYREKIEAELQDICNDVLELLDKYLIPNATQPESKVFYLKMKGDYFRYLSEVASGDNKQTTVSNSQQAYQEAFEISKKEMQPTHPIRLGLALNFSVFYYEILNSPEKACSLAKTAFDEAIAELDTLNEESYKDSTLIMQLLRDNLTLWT

B1: full-length human 14-3-3ζ fused to the C terminus of MBP (natural protein)
chain: MDKNELVQKAKLAEQAERYDDMAACMKSVTEQGAELSNEERNLLSVAYKNVVGARRSSWRVVSSIEQKTEGAEKKQQMAREYREKIETELRDICNDVLSLLEKFLIPNASQAESKVFYLKMKGDYYRYLAEVAAGDDKKGIVDQSQQAYQEAFEISKKEMQPTHPIRLGLALNFSVFYYEILNSPEKACSLAKTAFDEAIAELDTLSEESYKDSTLIMQLLRDNLTLWTSDTQGDEAEAGEGGEN
B2: full-length human 14-3-3γ fused to the C terminus of MBP (natural protein)
chain: MVDREQLVQKARLAEQAERYDDMAAAMKNVTELNEPLSNEERNLLSVAYKNVVGARRSSWRVISSIEQKTSADGNEKKIEMVRAYREKIEKELEAVCQDVLSLLDNYLIKNCSETQYESKVFYLKMKGDYYRYLAEVATGEKRATVVESSEKAYSEAHEISKEHMQPTHPIRLGLALNYSVFYYEIQNAPEQACHLAKTAFDDAIAELDTLNEDSYKDSTLIMQLLRDNLTLWTSDQQDDDGGEGNN

Tests used:
[1] = target: T1, full-length human 14-3-3σ fused to the …; assay: FP
[2] = target: T2, full-length human 14-3-3η fused to the …; assay: FP
[3] = target: B2; assay: FP
[4] = target: T3, full-length human 14-3-3β fused to the …; assay: FP
[5] = target: T4, full-length human 14-3-3τ fused to the …; assay: FP
[6] = target: T5, full-length human 14-3-3ε fused to the …; assay: FP
[7] = target: B1; assay: FP
[8] = target: T1, full-length human 14-3-3σ fused to the …; assay: FP
[9] = target: T2, full-length human 14-3-3η fused to the …; assay: FP
[10] = target: B2; assay: FP
[11] = target: T3, full-length human 14-3-3β fused to the …; assay: FP
[12] = target: T4, full-length human 14-3-3τ fused to the …; assay: FP
[13] = target: T5, full-length human 14-3-3ε fused to the …; assay: FP
[14] = target: B1; assay: FP
[15] = target: T6, unfused 14-3-3ε devoid of the flexible …; assay: FP
[16] = target: T7, unfused 14-3-3τ devoid of the flexible …; assay: FP
[17] = target: T8, unfused 14-3-3β devoid of the flexible …; assay: FP
[18] = target: B2; assay: FP; with FSC
[19] = target: T9, HPV33 E6 phospho-PBM peptide p33E6 (human papillomavirus type 33); assay: FP
[20] = target: T10, HPV35 E6 phospho-PBM peptide p35E6 (human papillomavirus type 35); assay: FP
[21] = target: T9, HPV33 E6 phospho-PBM peptide p33E6; assay: FP; remark: listed apart in the source
[22] = target: T10, HPV35 E6 phospho-PBM peptide p35E6; assay: FP; remark: listed apart in the source
[23] = target: T9, HPV33 E6 phospho-PBM peptide p33E6; assay: FP; +FSC
[24] = target: T10, HPV35 E6 phospho-PBM peptide p35E6; assay: FP; +FSC
[25] = target: T9, HPV33 E6 phospho-PBM peptide p33E6; assay: FP; with FSC
[26] = target: T10, HPV35 E6 phospho-PBM peptide p35E6; assay: FP; with FSC

Row | Binder | Kd [1] [nM] | Kd [2] [nM] | Kd [3] [nM] | Kd [4] [nM] | Kd [5] [nM] | Kd [6] [nM] | Kd [7] [nM] | Kd [8] [nM] | Kd [9] [nM] | Kd [10] [nM] | Kd [11] [nM] | Kd [12] [nM] | Kd [13] [nM] | Kd [14] [nM] | Kd [19] [nM] | Kd [20] [nM] | Kd [22] [nM] | Kd [23] [nM] | Kd [24] [nM] | Kd [25] [nM] | also measured
1 | {Biotin-ttds}-RRVRKLPST[pT]L [RSK1 phospho-PBM peptide RSK1_-1P] | 1700 | 500 | 300 | 700 | 800 | 1600 | 1000 | 1710 | 460 | 310 | 740 | 780 | 1580 | 960 | – | – | – | – | – | – | –
2 | {FITC}-WLRRA[pS]APLPGLK [fluorescently labeled HSPB6 phosphopeptide (fpB6)] | – | – | – | – | – | – | – | 9620 | 2470 | 1950 | 5220 | 9000 | 7170 | 4760 | – | – | – | – | – | – | Kd [15]: 5270 nM; Kd [16]: 6530 nM; Kd [17]: 3750 nM; Kd [18]: 4400 nM
3 | B1 | – | – | – | – | – | – | – | – | – | – | – | – | – | – | 2700 | 191000 | 191000 | 3900 | 294000 | 3940 | Kd [21]: 2720 nM; Kd [26]: 294000 nM
4 | {Biotin-ttds}-RRVRKLPS[pT]TL [RSK1 phospho-PBM peptide RSK1_-2P] | 3600 | 700 | 200 | 1000 | 500 | 1200 | 1500 | 3570 | 660 | – | 960 | 450 | 1220 | 1540 | – | – | – | – | – | – | –
5 | B2 | – | – | – | – | – | – | – | – | – | – | – | – | – | – | 900 | 125000 | 125000 | 2200 | 228000 | 2150 | –
